Assay [1] concerns the target human factor H (human) (UniProt P08603).
Assay [2] has as its target elongation factor Tu (EF-Tu) of M. hyopneumoniae strain 168, endogenous (M. hyopneumoniae (endogenous in strain 168)).
Assay [3] addresses human factor H (human) (UniProt P08603). As to the kind of experiment: SPR; BIAcore X100 Plus; factor H amine-coupled to a CM5 chip (712 RU); recombinant EF-Tu 0-14 uM as analyte in HBS-EP (10 mM HEPES, 150 mM NaCl, 3 mM EDTA, 0.05% P20), 30 uL/min, 180 s, 20°C.

human factor H (human), sequence (P08603 19-1231): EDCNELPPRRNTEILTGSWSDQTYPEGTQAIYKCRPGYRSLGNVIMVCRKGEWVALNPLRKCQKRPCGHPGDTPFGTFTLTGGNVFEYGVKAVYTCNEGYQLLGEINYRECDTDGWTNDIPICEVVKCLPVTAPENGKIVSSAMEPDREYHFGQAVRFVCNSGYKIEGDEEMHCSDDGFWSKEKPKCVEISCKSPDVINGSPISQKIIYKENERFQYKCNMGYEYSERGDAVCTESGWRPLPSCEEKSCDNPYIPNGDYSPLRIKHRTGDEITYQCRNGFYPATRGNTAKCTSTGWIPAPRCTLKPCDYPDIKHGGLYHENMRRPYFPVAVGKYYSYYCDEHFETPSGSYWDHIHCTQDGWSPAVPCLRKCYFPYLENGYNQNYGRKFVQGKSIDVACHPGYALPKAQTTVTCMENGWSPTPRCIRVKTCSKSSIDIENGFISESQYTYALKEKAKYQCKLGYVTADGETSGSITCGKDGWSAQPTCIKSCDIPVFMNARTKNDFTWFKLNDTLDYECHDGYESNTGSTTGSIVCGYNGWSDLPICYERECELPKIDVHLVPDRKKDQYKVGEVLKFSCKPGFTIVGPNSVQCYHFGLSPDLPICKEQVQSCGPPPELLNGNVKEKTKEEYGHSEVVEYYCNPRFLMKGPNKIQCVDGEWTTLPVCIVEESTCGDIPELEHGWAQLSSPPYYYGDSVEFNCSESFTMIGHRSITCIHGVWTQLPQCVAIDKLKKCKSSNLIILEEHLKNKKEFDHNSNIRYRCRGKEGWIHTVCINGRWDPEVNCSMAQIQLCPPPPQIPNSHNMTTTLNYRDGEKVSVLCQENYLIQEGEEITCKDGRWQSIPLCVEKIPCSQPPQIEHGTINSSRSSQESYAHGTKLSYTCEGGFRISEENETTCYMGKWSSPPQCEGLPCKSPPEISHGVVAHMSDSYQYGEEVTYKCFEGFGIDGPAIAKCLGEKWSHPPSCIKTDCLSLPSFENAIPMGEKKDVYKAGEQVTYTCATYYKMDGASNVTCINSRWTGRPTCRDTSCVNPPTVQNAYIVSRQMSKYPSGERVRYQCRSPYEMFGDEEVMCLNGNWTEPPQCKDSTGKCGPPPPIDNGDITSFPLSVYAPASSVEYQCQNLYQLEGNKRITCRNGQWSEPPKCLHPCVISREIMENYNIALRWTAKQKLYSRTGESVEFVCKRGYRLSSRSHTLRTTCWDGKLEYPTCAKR
elongation factor Tu (EF-Tu) of M. hyopneumoniae strain 168, endogenous (M. hyopneumoniae (endogenous in strain 168)), sequence (Q4A7K0 whole entry): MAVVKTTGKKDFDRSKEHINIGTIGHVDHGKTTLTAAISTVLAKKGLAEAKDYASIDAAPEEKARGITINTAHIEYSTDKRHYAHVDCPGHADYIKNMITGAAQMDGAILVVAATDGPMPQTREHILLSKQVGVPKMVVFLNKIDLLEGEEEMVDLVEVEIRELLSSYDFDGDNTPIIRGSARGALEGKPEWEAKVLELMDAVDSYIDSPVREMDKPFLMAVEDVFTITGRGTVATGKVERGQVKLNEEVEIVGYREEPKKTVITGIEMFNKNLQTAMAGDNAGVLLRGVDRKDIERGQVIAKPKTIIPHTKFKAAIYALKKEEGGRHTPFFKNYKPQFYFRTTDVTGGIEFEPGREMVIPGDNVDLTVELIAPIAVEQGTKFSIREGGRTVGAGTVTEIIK
elongation factor Tu (EF-Tu) of M. hyopneumoniae strain 168, endogenous (natural protein), sequence (Q4A7K0 whole entry): as above
recombinant full-length EF-Tu of M. hyopneumoniae, sequence (Q4A7K0 whole entry): as above
human factor H, sequence (P08603 19-1231): as the sequence (P08603 19-1231) above

Take “elongation factor Tu (EF-Tu) of M. hyopneumoniae strain 168, endogenous (natural protein)”: the binding of M. hyopneumoniae cells to factor H immobilised on 96-well plates (qPCR count) after preincubation with anti-EF-Tu polyclonal antibodies against preimmune serum with human factor H (human) [1] came to 47.7%.

In assay [2], “human factor H (from UniProt P08603 19-1231) (natural protein)” gave a C3 fragment deposition on M. hyopneumoniae cells by flow cytometry, anti-EF-Tu antibodies against preimmune sera, with factor H of 8 fold.

Broadly, the Kd is the free concentration of one partner at which half of the binding sites on the other are occupied at equilibrium, for simple one-to-one binding. Turning to “recombinant full-length EF-Tu of M. hyopneumoniae (from UniProt Q4A7K0 1-402) (natural protein; other documents disagree on this pair)”, the Kd with human factor H (human) [3] stood at 7.83 µM.
